Test results from patent US11035860B2, “Auto-active and intracellular mutant of MET” (Stichting Katholieke Universiteit, priority 2014, dated 2021).
Entries after “also recorded” stand apart in the source; their conditions may differ.

Legend:
wtMET = molecular target: T1, wtMET (Homo sapiens, UniProt P08581); test: MET phosphorylation in serum-starved A549 cells (western blot); type: cell-based; settings: FIG. 1B, FIG. 5
T1 construct: in A549 cells the matured, cleaved MET protein was the predominant form; endogenous in cells; host or cells: A549 cells, serum-starved
Description: (§1) All cell lines were maintained at 37° C. in the presence of 5% CO2. To examine HGF-induced MET activation, E98 and A549 cells were seeded in 6 wells plates. The next day cells were serum-starved overnight. The following day cells were treated for 10 minutes (min) with HGF (50 ng/mL, Miltenyi Biotec, Bergisch Gladbach, Germany).
(§2) Cell lysates were prepared using RIPA buffer containing protease and phosphatase inhibitors (Cell Signaling Technology, CST, Danvers, Mass., USA). RIPA extracts (20-40 μg per lane) and His-tagged proteins from conditioned media (equivalent of 20 μl conditioned medium) were subjected to PAGE on 8-10% polyacrylamide gels and western blotting according to standard procedures. Nitrocellulose blots (Whatman Optitran BA-S85, GE Healthcare, Little Chalfont, UK) were blocked with PBS/Odyssey Blocking Buffer (LI-COR Biosciences, Lincoln, Nebr., USA) (1:1), followed by overnight incubation with primary antibodies at 4° C. […] Biotin groups and primary antibodies were visualized using respectively streptavidin-680 (Molecular Probes, Life Technology) and appropriate secondary antibodies [goat-anti-rabbit-IRDye800 (Rockland Immunochemicals, Gilbertsville, Pa., USA) or Alexa Fluor 680 goat-anti-mouse IgG (Molecular Probes, Life Technologies)]. Blots were scanned on the Odyssey imager (LI-COR Biosciences).

AKT [1] = test: AKT phosphorylation in E98 cells (western blot); type: cell-based, human; settings: serum-starved E98 cells; FIG. 5
Description: (§3) The E98 cell line and xenograft model and genetic analysis thereof have been described before (Caretti et al., 2011; Claes et al., 2008). E98, U87, A549, HEK-293T and TOV-112D cells were cultured in DMEM+4.5 g/L glucose medium (PAA Laboratories, Pasching, Austria) supplemented with 10% fetal calf serum (FCS) (PAA) and gentamycin (40 μg/mL). All cell lines were maintained at 37° C. in the presence of 5% CO2. To examine HGF-induced MET activation, E98 and A549 cells were seeded in 6 wells plates. The next day cells were serum-starved overnight. The following day cells were treated for 10 minutes (min) with HGF (50 ng/mL, Miltenyi Biotec, Bergisch Gladbach, Germany). In some experiments, prior to HGF incubation cells were incubated with the anti-MET llama VHH G2 (Heukers et al., 2014) or cabozantinib (XL-184, Exelixis, San Francisco, Calif.) for 60 min.
(§4) Cell lysates were prepared using RIPA buffer containing protease and phosphatase inhibitors (Cell Signaling Technology, CST, Danvers, Mass., USA). RIPA extracts (20-40 μg per lane) and His-tagged proteins from conditioned media (equivalent of 20 μl conditioned medium) were subjected to PAGE on 8-10% polyacrylamide gels and western blotting according to standard procedures. […]

AKT [2] = test: AKT phosphorylation in A549 cells (western blot); type: cell-based, human; settings: FIG. 5
Description: as §3, §4

METΔ7-8 = molecular target: T2, METΔ7-8 (Homo sapiens, UniProt P08581, DEL622-701); test: MET phosphorylation in serum-starved E98 cells (western blot); type: cell-based; settings: FIG. 5
T2 construct: the majority of MET protein was in a 180 kDa phosphorylated form, corresponding to the uncleaved truncated preform; endogenous in cells; host or cells: E98 glioma cells, serum-starved
Description: as §1, §2

lung cancer = settings: phase II study, lung cancer (Spigel et al., 2013); cited from earlier work

Substance	MET phosphorylation (wtMET)	levels of pAKT (AKT [1])	levels of pAKT (AKT [2])	activation of the minority of processed β-fragment of MET (METΔ7-8)	overall MET phosphorylation levels (METΔ7-8; HGF 50 ng/mL 10 min, G2 or cabozantinib 60 min, FIG. 1B)	primary end point of prolonged survival (lung cancer)
HGF: ligand Hepatocyte Growth Factor (HGF, Scatter Factor) of MET	required for MET activation; also recorded: induced MET phosphorylation	neither G2 nor HGF treatment resulted in altered levels	increased levels of pAKT	slight activation	did not further increase	–
MetMab: antibody; MET activation inhibitor tested in a phase II study for lung cancer	–	–	–	–	–	failed to meet the primary end point
